# From IntAct's records for PubMed 30026314
# B1: Protein Wnt-7a (Homo sapiens), O00755 (parent)
# chain: MNRKARRCLGHLFLSLGMVYLRIGGFSSVVALGASIICNKIPGLAPRQRAICQSRPDAIIVIGEGSQMGLDECQFQFRNGRWNCSALGERTVFGKELKVGSREAAFTYAIIAAGVAHAITAACTQGNLSDCGCDKEKQGQYHRDEGWKWGGCSADIRYGIGFAKVFVDAREIKQNARTLMNLHNNEAGRKILEENMKLECKCHGVSGSCTTKTCWTTLPQFRELGYVLKDKYNEAVHVEPVRASRNKRPTFLKIKKPLSYRKPMDTDLVYIEKSPNYCEEDPVTGSVGTQGRACNKTAPQASGCDLMCCGRGYNTHQYARVWQCNCKFHWCCYVKCNTCSERTEMYTCK
# partner: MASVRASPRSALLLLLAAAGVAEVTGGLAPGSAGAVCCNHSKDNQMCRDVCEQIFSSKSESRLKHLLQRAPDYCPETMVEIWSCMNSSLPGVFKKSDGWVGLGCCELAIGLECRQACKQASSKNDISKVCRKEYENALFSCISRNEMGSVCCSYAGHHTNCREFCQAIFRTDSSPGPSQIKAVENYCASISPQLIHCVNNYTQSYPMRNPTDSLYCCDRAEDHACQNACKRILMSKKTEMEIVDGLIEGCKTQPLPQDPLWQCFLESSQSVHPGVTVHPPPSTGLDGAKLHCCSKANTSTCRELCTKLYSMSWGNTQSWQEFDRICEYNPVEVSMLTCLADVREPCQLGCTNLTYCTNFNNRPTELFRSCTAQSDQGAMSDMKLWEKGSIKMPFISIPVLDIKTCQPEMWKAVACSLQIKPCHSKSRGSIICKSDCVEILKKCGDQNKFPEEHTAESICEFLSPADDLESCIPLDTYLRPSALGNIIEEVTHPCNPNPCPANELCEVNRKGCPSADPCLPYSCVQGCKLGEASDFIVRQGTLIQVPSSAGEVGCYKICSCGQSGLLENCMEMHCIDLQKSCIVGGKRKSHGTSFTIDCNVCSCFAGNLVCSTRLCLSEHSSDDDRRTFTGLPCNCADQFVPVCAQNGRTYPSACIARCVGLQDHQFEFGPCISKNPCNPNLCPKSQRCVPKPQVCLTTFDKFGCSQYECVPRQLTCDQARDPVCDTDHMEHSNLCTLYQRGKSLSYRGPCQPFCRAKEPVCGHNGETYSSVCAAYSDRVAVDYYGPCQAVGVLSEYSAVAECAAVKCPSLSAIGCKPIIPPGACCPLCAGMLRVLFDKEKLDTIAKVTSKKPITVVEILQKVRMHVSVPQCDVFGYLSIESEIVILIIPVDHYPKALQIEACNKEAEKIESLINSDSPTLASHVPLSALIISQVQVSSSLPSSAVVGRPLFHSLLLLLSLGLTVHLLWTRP
# Variants of: B1
# Conditions: with reck_mouse Reck
row,Variant,effect of a mutation on the interaction
1,MNRKARRCLGHLFLSLGMVYLRIGGFSSVVALGASIICNKIPGLAPRQRAICQSRPDAIIVIGEGSQMGLDECQFQFRNGRWNCSALGERTVFGKELKVGSREAAFTYAIIAAGVAHAITAACTQGNLSDCGCDKEKQGQYHRDEGWKWGGCSADIRYGIGFAKVFVDAREIKQNARTLMNLHNNEAGRKILEENMKLECKCHGVSGSCTTKTCWTTLPQFRELGYVLKDKYNEAVHVEPARASRNKRPTAAKIKKPLSYRAPMDTDLVYIEKSPNYCEEDPVTGSVGTQGRACNKTAPQASGCDLMCCGRGYNTHQYARVWQCNCKFHWCCYVKCNTCSERTEMYTCK [V241A;F251A;L252A;K262A],disrupting interaction strength
